Here are results for 20 substances from article PMC12700808.

The target in assay [1] is FG repeat domain of 669 residues with non-charged spacers and 36 FSFG motifs. Kind of assay: FG phase partitioning assay.
Assay [2] shares this target. The experiment in a line: partitioning into an FG phase (confocal laser scanning microscopy); as a1 but FG phases assembled from the SLFG or the FSFG repeat domain (stocks in 4 M guanidinium hydrochloride, diluted 50-fold).
Assay [3] concerns the target Nup98-type FG domain comprising 52 perfect 12-mer GLFG repeat units (prf.GLFG52x12). Kind of assay: FG phase partitioning assay.
Assay [4] shares this target. The experiment in a line: FG phase partitioning assay. The source holds these as a separate data set.
For assay [5] the target is unchanged. The experiment in a line: FG phase partitioning assay. The source holds these as a separate data set.
Assay [6] has the same target. The experiment in a line: FG phase partitioning assay. This is another data set of the same source.
Assay [7] shares this target. The experiment in a line: FG phase partitioning assay. This is another data set of the same source.
Setting [8] is: fluorescence intensity at rim of FG particles.
Setting [9] is: fluorescence intensity in center of FG particles.
The mark [10] stands for this setting: signal in center of FG particles.

In the case of “20-nm T1 pentamer-only capsid spheres (CA P1A+G60A+G61P), EGFP-labelled G89V”, the response came to 31000 in assay [1] (setting [8]) and 34000 in assay [1] (setting [9]). Further, the percent of parent in assay [1] (signal at rim of FG particles) was found to be 160%; in assay [1] (setting [10]) it was 170%.
The corresponding values for “20-nm T1 pentamer-only capsid spheres (CA P1A+G60A+G61P), EGFP-labelled P90A” are 45000, 51000, 240% and 260%.
Substance “20-nm pentamer-only spheres of CA A92E (CA P1A+G60A+G61P background), EGFP-labelled (complex)” registered a fold reduction of partitioning against WT in assay [2] below 100 fold.
The same measure, in the same setting: the same measure for “20-nm pentamer-only spheres of CA G94D (CA P1A+G60A+G61P background), EGFP-labelled (complex)”: below 100 fold; for “20-nm pentamer-only spheres of CA H87Q (CA P1A+G60A+G61P background), EGFP-labelled (complex)”: below 100 fold.
In turn, “20-nm pentamer-only spheres of CA Q9E (CA P1A+G60A+G61P background), EGFP-labelled (complex)” returned a fold reduction of partitioning against WT in assay [2] below 100 fold.
“CLPs of CA G89V, filled with sinGFP4a (complex)” displayed a fold partitioning against wild type in assay [2] of 4 fold.
Consider “conical CLPs (capsid-like particles) of wild-type CA (CA-P1A), filled with sinGFP4a A77V”, for which the percent of parent in assay [3] (setting [10]) is 94%. The response is 27000 in assay [4] (setting [8]) and 29000 in assay [4] (setting [9]).
In the case of “conical CLPs (capsid-like particles) of wild-type CA (CA-P1A), filled with sinGFP4a E45A”, the percent of parent in assay [3] (signal at rim of FG particles) and in assay [3] (setting [10]) was 110% throughout. Further, the figures for the response in assay [4] (setting [8]) and in assay [4] (setting [9]) were 29000 and 34000, respectively.
Consider “conical CLPs (capsid-like particles) of wild-type CA (CA-P1A), filled with sinGFP4a G89V”, for which the percent of parent in assay [3] (setting [10]) is 110%. Further, the figures for the response in assay [4] (setting [8]) and in assay [4] (setting [9]) were 29000 and 30000, respectively.
“conical CLPs (capsid-like particles) of wild-type CA (CA-P1A), filled with sinGFP4a H87Q; A92E; G94D”: the response is 8200 in assay [5] (setting [8]) and 670 in assay [5] (setting [9]). In assay [6] (setting [10]), the percent of parent was 2.6%.
For “conical CLPs (capsid-like particles) of wild-type CA (CA-P1A), filled with sinGFP4a K182R”, the percent of parent in assay [3] (setting [10]) came out at 110%. For the same substance, the response in assay [4] (setting [8]) stood at 28000; in assay [4] (setting [9]) it was 34000.
As for “conical CLPs (capsid-like particles) of wild-type CA (CA-P1A), filled with sinGFP4a N57A”, the values for the percent of parent in assay [3] (signal at rim of FG particles), in assay [5] (signal at rim of FG particles) and in assay [5] (setting [10]) were 80%, 85% and 7%, respectively. For the same substance, the response came out at 21000 in assay [4] (setting [8]), 1600 in assay [4] (setting [9]), 23000 in assay [5] (setting [8]) and 1800 in assay [5] (setting [9]).
In the case of “conical CLPs (capsid-like particles) of wild-type CA (CA-P1A), filled with sinGFP4a N74D”, the percent of parent in assay [3] (signal at rim of FG particles) and in assay [3] (setting [10]) was 110% each time. In addition, the response in assay [4] (setting [8]) was determined as 30000; in assay [4] (setting [9]) it was 33000.
With “conical CLPs (capsid-like particles) of wild-type CA (CA-P1A), filled with sinGFP4a P90A”, the percent of parent in assay [3] (signal at rim of FG particles) worked out at 110%. The response in assay [4] (setting [8]) turned out to be 29000; in assay [4] (setting [9]), 32000.
Consider “conical CLPs (capsid-like particles) of wild-type CA (CA-P1A), filled with sinGFP4a P123E”, for which the response in assay [7] (setting [8]) turned out to be 17000; in assay [7] (setting [9]), 7400. In addition, the percent of parent in assay [5] (signal at rim of FG particles) was 80%.
With “conical CLPs (capsid-like particles) of wild-type CA (CA-P1A), filled with sinGFP4a Q9E”, the response was determined as 26000 in assay [7] (setting [8]), 3400 in assay [7] (setting [9]), 24000 in assay [5] (setting [8]) and 3500 in assay [5] (setting [9]). The percent of parent came out at 120% in assay [5] (signal at rim of FG particles), 14% in assay [5] (setting [10]), 89% in assay [6] (signal at rim of FG particles) and 13% in assay [6] (setting [10]).
On to “conical CLPs (capsid-like particles) of wild-type CA (CA-P1A), filled with sinGFP4a Q9E; A92E”, for which the response in assay [5] (setting [8]) came out at 9700; in assay [5] (setting [9]), 660. Also, the percent of parent worked out at 36% in assay [6] (signal at rim of FG particles) and 2.5% in assay [6] (setting [10]).
In the case of “conical CLPs (capsid-like particles) of wild-type CA (CA-P1A), filled with sinGFP4a R97K”, the values for the response in assay [7] (setting [8]) and in assay [7] (setting [9]) were 20000 and 5000, respectively. For the same substance, the percent of parent in assay [5] (signal at rim of FG particles) is 90%; in assay [5] (setting [10]) it was 20%.
With “conical CLPs (capsid-like particles) of wild-type CA (CA-P1A), filled with sinGFP4a V86E; A88E; I91E; A92E”, the response in assay [5] (setting [8]) was 260; in assay [5] (setting [9]), 190. Besides, the percent of parent in assay [6] (signal at rim of FG particles) was found to be 1%; in assay [6] (setting [10]), 0.7%.
